Results on two molecules are retold here after patent US20060121042A1 (AstraZeneca / MedImmune, published 2006).

One assay has as its target T1, rmEph B3 (mouse, UniProt P54754).
T1 sequence (receptor, looked up): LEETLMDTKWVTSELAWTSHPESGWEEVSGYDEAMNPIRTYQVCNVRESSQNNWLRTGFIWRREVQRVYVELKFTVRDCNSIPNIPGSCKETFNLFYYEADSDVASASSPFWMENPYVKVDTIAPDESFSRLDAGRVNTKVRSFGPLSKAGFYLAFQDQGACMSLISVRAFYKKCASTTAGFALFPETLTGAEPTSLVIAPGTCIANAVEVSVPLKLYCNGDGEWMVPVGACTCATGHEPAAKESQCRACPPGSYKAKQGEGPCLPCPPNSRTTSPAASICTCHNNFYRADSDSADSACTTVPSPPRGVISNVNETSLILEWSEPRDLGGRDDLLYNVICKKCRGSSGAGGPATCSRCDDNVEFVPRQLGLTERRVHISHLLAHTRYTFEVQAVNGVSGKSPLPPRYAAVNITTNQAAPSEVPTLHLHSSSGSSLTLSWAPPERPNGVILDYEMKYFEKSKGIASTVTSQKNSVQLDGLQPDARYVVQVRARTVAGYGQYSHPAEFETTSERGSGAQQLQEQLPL
Kind of assay: ELISA. (An ELISA detects its analyte on a solid surface through an enzyme-linked reagent.)

The target in another assay is T2, rmEph B2 (mouse, UniProt P54763).
T2 sequence (receptor, looked up): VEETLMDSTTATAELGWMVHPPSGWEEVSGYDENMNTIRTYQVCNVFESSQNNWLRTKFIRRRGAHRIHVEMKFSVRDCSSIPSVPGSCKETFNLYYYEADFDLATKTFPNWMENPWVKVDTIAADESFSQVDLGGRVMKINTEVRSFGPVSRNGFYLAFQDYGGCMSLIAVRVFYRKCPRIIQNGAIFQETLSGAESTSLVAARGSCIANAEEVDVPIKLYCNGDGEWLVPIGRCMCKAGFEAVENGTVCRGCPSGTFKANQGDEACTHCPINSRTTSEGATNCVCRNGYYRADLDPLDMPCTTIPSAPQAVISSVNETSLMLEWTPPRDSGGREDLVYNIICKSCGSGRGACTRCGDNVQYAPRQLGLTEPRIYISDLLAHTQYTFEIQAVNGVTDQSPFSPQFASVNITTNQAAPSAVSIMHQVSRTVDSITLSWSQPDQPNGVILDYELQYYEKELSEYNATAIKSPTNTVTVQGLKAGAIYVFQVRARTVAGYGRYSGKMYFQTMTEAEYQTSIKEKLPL
Kind of assay: ELISA.

A further assay concerns the target T3, rrEphB1 (rat, UniProt P09759).
T3 sequence (receptor, looked up): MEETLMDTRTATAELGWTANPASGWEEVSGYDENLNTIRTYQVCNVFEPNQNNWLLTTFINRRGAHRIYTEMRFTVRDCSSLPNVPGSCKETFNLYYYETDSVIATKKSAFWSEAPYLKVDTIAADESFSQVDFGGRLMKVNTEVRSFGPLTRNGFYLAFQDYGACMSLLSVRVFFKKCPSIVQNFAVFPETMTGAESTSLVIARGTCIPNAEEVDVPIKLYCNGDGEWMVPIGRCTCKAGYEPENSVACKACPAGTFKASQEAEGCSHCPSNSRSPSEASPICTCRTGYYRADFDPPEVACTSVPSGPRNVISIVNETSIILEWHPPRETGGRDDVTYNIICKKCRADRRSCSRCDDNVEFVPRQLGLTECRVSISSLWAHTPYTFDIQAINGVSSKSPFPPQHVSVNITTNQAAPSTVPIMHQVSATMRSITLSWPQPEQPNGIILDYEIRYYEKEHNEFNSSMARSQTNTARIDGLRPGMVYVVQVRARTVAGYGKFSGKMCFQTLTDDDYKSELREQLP
Kind of assay: ELISA.

Assay [1] addresses T4, human EphA4 (construct not given) (human, UniProt P54764 20-547, limits assumed).
T4 construct: also called EphA4 receptor
Kind of assay: ELISA.

A further assay deals with mEph A4 (mouse, UniProt Q03137). Kind of assay: ELISA.
mEph A4, sequence (Q03137 20-547 limits assumed): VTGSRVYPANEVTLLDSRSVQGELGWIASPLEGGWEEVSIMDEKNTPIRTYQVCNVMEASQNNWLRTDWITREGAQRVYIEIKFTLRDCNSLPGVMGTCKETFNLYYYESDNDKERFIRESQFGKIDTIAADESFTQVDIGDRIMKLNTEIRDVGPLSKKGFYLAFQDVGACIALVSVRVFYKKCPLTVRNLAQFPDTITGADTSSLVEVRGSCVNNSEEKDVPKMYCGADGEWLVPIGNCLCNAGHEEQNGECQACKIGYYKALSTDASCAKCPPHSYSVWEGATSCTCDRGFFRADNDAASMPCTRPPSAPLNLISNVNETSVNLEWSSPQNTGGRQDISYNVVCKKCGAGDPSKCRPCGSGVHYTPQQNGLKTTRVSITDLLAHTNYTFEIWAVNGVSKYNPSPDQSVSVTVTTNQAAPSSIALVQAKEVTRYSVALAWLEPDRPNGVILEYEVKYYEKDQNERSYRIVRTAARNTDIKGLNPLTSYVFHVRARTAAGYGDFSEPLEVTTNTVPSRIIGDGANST
In a further assay the target is T5, hEph A1.
T5 construct: also called human EphA1; not shown: Fc portion of the probable EphA1-Fc fusion (human IgG1 Fc)
T5 chain: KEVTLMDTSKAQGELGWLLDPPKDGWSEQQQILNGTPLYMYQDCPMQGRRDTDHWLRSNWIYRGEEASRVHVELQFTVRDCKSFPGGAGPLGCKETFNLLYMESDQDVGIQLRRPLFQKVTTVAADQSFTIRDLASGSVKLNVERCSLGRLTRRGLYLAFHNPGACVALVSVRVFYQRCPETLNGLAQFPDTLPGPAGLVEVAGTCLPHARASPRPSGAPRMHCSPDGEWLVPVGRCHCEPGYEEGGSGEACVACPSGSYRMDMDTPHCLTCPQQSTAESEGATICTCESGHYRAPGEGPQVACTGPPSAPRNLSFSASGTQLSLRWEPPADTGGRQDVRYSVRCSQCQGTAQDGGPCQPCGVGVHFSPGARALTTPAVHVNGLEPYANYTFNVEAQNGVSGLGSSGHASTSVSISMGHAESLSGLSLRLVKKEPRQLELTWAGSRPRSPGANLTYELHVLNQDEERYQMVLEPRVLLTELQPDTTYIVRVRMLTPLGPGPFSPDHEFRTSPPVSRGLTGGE
Kind of assay: ELISA.

A further assay concerns the target rEph A5 (rat, UniProt P54757). Kind of assay: ELISA.
In the next assay the target is T6, mEph A6 (mouse, UniProt Q62413).
T6 sequence (receptor, looked up): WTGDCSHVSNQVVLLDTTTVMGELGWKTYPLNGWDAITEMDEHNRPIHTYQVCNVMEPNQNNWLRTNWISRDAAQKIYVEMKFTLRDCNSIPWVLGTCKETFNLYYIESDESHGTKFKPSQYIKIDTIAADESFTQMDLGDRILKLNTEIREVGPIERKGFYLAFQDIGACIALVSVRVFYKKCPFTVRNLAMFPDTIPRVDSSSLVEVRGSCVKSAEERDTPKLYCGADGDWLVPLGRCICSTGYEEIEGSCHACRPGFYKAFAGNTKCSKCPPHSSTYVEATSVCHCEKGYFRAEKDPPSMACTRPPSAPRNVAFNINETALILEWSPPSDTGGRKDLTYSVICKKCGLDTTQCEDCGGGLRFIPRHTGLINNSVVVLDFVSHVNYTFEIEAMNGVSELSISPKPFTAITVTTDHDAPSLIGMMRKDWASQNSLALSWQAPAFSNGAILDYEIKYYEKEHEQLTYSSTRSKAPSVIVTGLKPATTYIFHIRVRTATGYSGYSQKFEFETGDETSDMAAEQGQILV
Kind of assay: ELISA.

The target in assay [2] is T7, r murine EphA8 (mouse, UniProt O09127).
T7 construct: recombinant soluble protein coated on the plate; also called mEphA8; rEphA8
T7 sequence (receptor construct, looked up): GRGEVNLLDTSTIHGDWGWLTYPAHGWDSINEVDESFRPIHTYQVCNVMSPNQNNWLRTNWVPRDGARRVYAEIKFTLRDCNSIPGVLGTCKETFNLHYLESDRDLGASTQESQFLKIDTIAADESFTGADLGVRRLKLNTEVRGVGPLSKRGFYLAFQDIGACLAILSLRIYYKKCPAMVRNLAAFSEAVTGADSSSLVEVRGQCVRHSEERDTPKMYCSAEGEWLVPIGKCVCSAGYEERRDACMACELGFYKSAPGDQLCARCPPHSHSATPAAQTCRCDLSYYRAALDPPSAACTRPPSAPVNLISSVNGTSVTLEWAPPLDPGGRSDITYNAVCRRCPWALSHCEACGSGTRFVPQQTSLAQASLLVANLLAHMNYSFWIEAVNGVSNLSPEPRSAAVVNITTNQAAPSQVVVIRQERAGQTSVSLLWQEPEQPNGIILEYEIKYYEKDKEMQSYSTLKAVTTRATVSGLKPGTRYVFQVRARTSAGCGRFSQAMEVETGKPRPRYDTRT
Kind of assay: Activity ELISA, receptor coated on the plate, periplasmic Fab, anti-human kappa-HRP, OD 450 nm.

Assay [3] addresses T8, r murine EphA8 (mouse, UniProt O09127).
T8 construct: recombinant (rEphA8, R&D Systems); also called rEphA8
T8 sequence (receptor, looked up): T7 sequence (receptor construct, looked up)
Kind of assay: activity ELISA, Fab on coated antigen.

Another assay addresses T9, r murine EphA7 (mouse, UniProt Q61772).
T9 construct: recombinant Fc fusion (R&D Systems); also called rmuEphA7-Fc; mEphA7
T9 sequence (receptor-Fc fusion, looked up): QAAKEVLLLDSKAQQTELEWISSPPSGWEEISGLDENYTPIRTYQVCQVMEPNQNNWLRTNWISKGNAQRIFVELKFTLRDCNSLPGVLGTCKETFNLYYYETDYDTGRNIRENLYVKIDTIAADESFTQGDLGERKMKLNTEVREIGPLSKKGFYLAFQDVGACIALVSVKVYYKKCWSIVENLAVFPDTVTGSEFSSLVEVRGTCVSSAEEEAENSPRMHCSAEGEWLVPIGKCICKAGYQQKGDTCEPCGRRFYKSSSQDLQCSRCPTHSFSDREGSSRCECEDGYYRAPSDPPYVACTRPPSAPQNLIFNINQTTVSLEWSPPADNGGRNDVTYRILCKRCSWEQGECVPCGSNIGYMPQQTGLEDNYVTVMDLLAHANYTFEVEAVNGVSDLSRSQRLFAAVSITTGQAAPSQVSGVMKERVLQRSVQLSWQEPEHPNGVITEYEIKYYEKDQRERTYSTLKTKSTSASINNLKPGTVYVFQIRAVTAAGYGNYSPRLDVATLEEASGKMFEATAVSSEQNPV
Kind of assay: activity ELISA, Fab on coated antigen.

The next assay has as its target T10, r murine EphA4 (mouse, UniProt Q03137).
T10 construct: recombinant Fc fusion (R&D Systems); also called rmuEphA4-Fc; mEphA4
Kind of assay: activity ELISA, Fab on coated antigen.

Substitutions are numbered along the chain they refer to.

rEph A5, sequence (P54757 27-575 limits assumed): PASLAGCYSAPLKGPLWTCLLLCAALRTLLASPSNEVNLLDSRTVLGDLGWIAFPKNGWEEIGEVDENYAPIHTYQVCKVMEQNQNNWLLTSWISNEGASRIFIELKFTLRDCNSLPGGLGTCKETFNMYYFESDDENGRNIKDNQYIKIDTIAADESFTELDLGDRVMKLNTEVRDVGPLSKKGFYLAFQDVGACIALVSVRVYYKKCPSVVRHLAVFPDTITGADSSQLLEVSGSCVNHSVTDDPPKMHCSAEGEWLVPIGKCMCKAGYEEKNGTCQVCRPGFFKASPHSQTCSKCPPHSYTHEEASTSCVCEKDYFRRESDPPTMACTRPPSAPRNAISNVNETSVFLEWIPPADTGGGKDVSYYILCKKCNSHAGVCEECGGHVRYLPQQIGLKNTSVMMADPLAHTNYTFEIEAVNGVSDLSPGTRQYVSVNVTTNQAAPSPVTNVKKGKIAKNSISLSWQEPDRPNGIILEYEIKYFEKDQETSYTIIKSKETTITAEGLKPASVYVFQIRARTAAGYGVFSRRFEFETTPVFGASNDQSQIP
T10 sequence (Q03137 20-547 limits assumed): as the sequence (Q03137 20-547 limits assumed) above
T4 sequence (P54764 20-547 limits assumed): as the sequence (Q03137 20-547 limits assumed) above, with A59P, S121N, G124V, Q250R, N251S, S270T, R378K, S406N counted along it

B1: GEA44 11H1 (antibody, V domains shown)
VH: QVQLLQSGAEVKKPGASVKVPCKASGYTFTSYAMSWVRQAPGQGLEWMGWINTNTGNPTYAQGFTGRFVFSLDTSVSTAYLQISSLKAEDTAVYYCARVRLTVYGDGMDVWGQGTLVTVSS
VL: EIVLTQSPATLSVSPGERATLSCRASQSVSSNLAWYQQKPGQAPRLLIYGASTRATGIPDRFSASGSGTDFTLTISRVEPEDFAVYYCQQYGSSWTFGQGTKVEIK
notes: same variable regions as m16
Regarding B1, the binding result with rmEph B3 and with rrEphB1 was “binds” in each case. For the same molecule, the “ELISA O.D. value” worked out at 0.581 with rmEph B2; 0.887 in [1]; 0.358 in the assay with mEph A4; 0.784 in the assay with hEph A1; 0.717 with rEph A5; 1.43 in the assay with mEph A6.

B2: 3A12 Fab (affinity optimized combinatorial variant of Fab20) (Fab, V domains shown)
VH: B1 VH with Y32R, L101F
VL: B1 VL with R54W, S93P
B2: the binding result in the assay with r murine EphA8 [2], with r murine EphA8 [3], with r murine EphA7 and in the assay with r murine EphA4 was “binds” throughout.
